Biological target: TL1A monomer mutant
Experiment: method not stated (row 'Binds monomer mutant')

**Q.** For Comparator antibody 2 (MK-7240), which Kd is on record?
**A.** 0.13 nM
